The text below walks through data of article PMC12124358.

Assay [1] deals with H3 (3–19)_([change]-[change]) (UniProt P68431). Nature of the assay: crystal structure.
For assay [2], the target named is H3 (3–19)_([change]-[change])-Ub_([change]) (UniProt P68431). As to the kind of experiment: crystal structure.
Assay [3] deals with unmodified histone H3 N-terminal tail (residues 1 to 20) (UniProt P68431).

One may read the stoichiometry N as a count of units in the complex or per binding partner.

Clr4 lysine methyltransferase (KMT) domain (residues 192 to 490), sequence (O60016 192-490): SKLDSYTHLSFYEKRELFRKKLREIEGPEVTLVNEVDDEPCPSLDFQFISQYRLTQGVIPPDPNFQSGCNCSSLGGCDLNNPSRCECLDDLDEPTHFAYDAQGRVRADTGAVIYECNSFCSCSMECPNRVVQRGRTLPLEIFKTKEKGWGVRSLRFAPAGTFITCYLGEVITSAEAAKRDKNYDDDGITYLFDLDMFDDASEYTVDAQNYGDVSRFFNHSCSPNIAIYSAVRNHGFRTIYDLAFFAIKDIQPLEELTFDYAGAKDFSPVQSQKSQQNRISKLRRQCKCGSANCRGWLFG
full-length Clr4 (residues 1 to 490), sequence (O60016 whole entry, the tested form may be a part): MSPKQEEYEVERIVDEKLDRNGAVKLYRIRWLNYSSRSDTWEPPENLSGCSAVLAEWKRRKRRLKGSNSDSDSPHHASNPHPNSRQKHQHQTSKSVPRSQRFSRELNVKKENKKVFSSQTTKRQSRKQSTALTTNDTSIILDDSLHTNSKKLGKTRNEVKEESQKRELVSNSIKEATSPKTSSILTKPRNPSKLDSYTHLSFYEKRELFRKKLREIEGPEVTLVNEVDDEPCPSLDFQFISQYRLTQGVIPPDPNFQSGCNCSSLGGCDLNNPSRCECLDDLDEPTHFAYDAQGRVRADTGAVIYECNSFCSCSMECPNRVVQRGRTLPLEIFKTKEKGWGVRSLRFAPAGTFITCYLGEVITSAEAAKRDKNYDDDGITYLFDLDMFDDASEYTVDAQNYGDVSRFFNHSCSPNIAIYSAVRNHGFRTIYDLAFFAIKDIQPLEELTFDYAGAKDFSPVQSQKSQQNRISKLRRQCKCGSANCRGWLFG

Regarding “Clr4 lysine methyltransferase (KMT) domain (residues 192 to 490) (from UniProt O60016 192-490) (domain or fragment)”, the stoichiometry N in assay [1] and in assay [2] was 1 each time.

For the substance “full-length Clr4 (residues 1 to 490) (from UniProt O60016 1-490) (enzyme)”, the Km, Michaelis-Menten kinetics of H3K9 methylation (MTase-Glo, SAH production) in assay [3] is 75.8 µM. Same read-out and setting: under “full-length Clr4 K455A/K472A (automethylation-mimicking) (from UniProt O60016 1-490) (enzyme)” stands 26.5 µM.
